Columns and labels:
[1] = biological target: T1, thymidine monophosphate kinase (TMK) (Escherichia coli, UniProt P0A720); assay: coupled assay with ACK, HPLC; assay type: biochemical; details: phosphate donor; same
T1 sequence (P0A720 1-213): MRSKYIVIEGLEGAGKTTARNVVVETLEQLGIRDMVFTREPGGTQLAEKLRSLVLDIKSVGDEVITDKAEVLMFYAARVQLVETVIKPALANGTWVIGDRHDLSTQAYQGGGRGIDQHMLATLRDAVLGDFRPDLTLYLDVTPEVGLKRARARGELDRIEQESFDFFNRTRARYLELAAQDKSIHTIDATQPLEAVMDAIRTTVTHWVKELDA

SEC = biological target: the molecule itself; assay: SEC

Molecule	coupled assay with ACK, HPLC [1]	stoichiometry N (SEC)
Nc1ncnc2c1ncn2[C@@H]1O[C@H](COP(=O)(O)OP(=O)(O)OP(=O)(O)O)[C@@H](O)[C@H]1O [ATP]	ATP serves as a phosphate donor thereby converting into ADP	–
RavNMT (TDP-3-amino-3,6-dideoxy-D-galactose-N,N-dimethyltransferase) (enzyme, Streptomyces ravidus, UniProt D1H0I7 1-265, looked up) MSTLSVSQPGTPPTPADVEQAYGAEHADVYDAIYRGRGRDYAAEADAFLAVLRTRRPEITSLLDVACGTGAHLAALRGSVDHVEGVELSPWMHTLATRQLPGVAVHQDDMRSFNLSRRFSAVTCLFSSVGYLKSVEDLRRTLRTFRAHVAPGGVALVEPWWFPETFLDGYVGSSLVEVDGRTIARVSHTVRAGSTSRMTVEYTVAEPVNGVRRFSDLHVLSLFTREQYEDAFERAGFAVEFLKDGPSGRGLFLGVAPETTDGGPR	–	2
RavIM (TDP-4-keto-6-deoxy-D-glucose-3,4-ketoisomerase) (enzyme, Streptomyces ravidus, UniProt D1H0I6 1-156, looked up) MTDTTAATGTTAGTDVSRVGKVRPCALMKLQTIGDPRGQLAVVEGAKDIGFPVKRLFYLYDLPTSSVRGDHAHRNLEQFVIPINGSFDVAVDDTVDTAVCRLDDPGQGLYIGPMVWNSLVNFSEGAIALVLASEHYDEADYYRRYDEFLADAGARP	–	2
RavAMT (TDP-3-keto-6-deoxy-D-galactose-3-aminotransferase) (enzyme, Streptomyces ravidus, UniProt D1H0I5 1-369, looked up) MKVPYLDLKGPHTEIRAELDAAYHRVVDSGWFVLGEEVRAFEEEYAAYCGAAHCVSVATGCDALELALRALDIGPGDEVVVPSATYIATWLAVSETGADVVPVEVDPDTHLLDPAAVEAAVTPATRAVMPVHLYGQPADLPALRRVADRHGLALIDDAAQAHGARLNGTRVGGGGLATATAFSFYPGKNLGALGDGGGILTDDAELAERLRLLRNYGSRRKYHHELKSTNSRLDELHAAVLRAKLPHLDRWNARRAEIAERYRAAFADLPGLRPTAVPEGAEPSWHLYVVCCDDRDAVQRSLTDAGVGTLIHYPVPVHLSPAYADEKRWPAGAFPRAEAIAAQVLSLPMGPHLSDADVSYVIEAVRAAV	–	2

Source: PMC4482361 (Organic & biomolecular chemistry, 2011)
